Experimental data: publication PMC9458691
Values belong to the substance of their own block, whether it stands above or below them.

Legend:
Assay in all cases: native gel or EMSA; Blue Native PAGE, gradient from 3.5 to 16% polyacrylamide, of the IEC fractions of affinity purified PSII
[1] = target: Psb27-PSII complex isolated via His-tagged CP43 (PSII with Psb27, without the extrinsic subunits) (T. elongatus (endogenous in T. elongatus) | Thermosynechococcus elongatus) (UniProt P0A444)
[2] = target: PSII with the protein composition of mature PSII, isolated via CP43-TS-Tag (T. elongatus (endogenous in T. elongatus BP-1) | Thermosynechococcus elongatus BP-1) (UniProt P0A444)
[3] = target: Psb27-PSII complex isolated via CP43-TS-Tag (PSII with Psb27, without the extrinsic subunits) (T. elongatus (endogenous in T. elongatus BP-1) | Thermosynechococcus elongatus BP-1) (UniProt P0A444)
[4] = target: PSII with the protein composition of mature PSII, isolated via His-tagged CP43 (T. elongatus (endogenous in T. elongatus) | Thermosynechococcus elongatus) (UniProt P0A444)

stoichiometry N [1]: 2
Substance: Psb27-PSII complex isolated via His-tagged CP43 (PSII with Psb27, without the extrinsic subunits) (from UniProt P0A444 1-344; Q8CM25 1-352; Q8DIF8 1-461; Q8DIQ1 1-510; Q8DG60 22-134)

stoichiometry N [2]: 2
Substance: PSII with the protein composition of mature PSII, isolated via CP43-TS-Tag (from UniProt P0A444 1-344; Q8CM25 1-352; Q8DIF8 1-461; Q8DIQ1 1-510; P0A431 27-272; Q9F1L5 31-134; P0A386 27-163) (complex)

stoichiometry N [3]: 2
Substance: Psb27-PSII complex isolated via CP43-TS-Tag (PSII with Psb27, without the extrinsic subunits) (from UniProt P0A444 1-344; Q8CM25 1-352; Q8DIF8 1-461; Q8DIQ1 1-510; Q8DG60 22-134)

stoichiometry N [4]: 2
Substance: PSII with the protein composition of mature PSII, isolated via His-tagged CP43 (from UniProt P0A444 1-344; Q8CM25 1-352; Q8DIF8 1-461; Q8DIQ1 1-510; P0A431 27-272; Q9F1L5 31-134; P0A386 27-163) (complex)
